# pKd: −log10 of the molar value.
# Tests used:
# [1] = molecular target: hDLG1 PDZ1 domain (human) (UniProt Q12959); assay: NMR titration
# [2] = molecular target: hDLG1 PDZ1 domain (human) (UniProt Q12959); assay: ITC
# [3] = molecular target: hDLG1 PDZ2 domain (human) (UniProt Q12959); assay: ITC
# Chain of hDLG1 PDZ2 domain (human) (Q12959 whole entry, the tested form may be a part): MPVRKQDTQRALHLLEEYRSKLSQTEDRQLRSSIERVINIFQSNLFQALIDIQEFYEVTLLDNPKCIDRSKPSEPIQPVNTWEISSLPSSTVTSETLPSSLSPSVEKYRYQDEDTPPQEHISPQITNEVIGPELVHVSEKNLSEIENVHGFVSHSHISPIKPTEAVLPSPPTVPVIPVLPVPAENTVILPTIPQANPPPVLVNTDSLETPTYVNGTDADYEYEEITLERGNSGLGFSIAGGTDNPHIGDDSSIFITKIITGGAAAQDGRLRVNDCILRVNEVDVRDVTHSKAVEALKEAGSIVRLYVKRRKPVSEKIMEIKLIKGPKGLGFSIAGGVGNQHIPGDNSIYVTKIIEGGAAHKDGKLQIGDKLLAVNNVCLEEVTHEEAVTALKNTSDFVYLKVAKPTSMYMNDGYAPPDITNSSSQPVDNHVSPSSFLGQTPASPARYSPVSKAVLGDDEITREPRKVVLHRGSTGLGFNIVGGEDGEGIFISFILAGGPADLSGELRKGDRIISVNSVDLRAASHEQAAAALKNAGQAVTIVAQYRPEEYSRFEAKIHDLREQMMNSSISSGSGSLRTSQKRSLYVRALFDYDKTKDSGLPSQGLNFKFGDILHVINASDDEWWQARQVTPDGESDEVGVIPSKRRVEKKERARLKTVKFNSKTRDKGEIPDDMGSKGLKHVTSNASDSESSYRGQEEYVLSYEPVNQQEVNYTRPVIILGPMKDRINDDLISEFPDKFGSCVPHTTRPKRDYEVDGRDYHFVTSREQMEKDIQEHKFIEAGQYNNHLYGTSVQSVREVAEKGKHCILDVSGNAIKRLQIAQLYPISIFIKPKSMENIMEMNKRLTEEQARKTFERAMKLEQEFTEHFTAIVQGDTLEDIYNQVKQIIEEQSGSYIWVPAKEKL
# Chain of hDLG1 PDZ1 domain (human) (Q12959 whole entry, the tested form may be a part): as above
Substance,pKd [1],pKd [2],dH [2] [kJ/mol],stoichiometry N [2],pKd [3],dH [3] [kJ/mol],stoichiometry N [3]
C-terminally amidated Tax-1 peptide (Tax-1mod),3.02,–,–,–,–,–,–
Tax-1 10-mer peptide (H-…-OH),–,5.57,-33.5,1.03,6.05,-43.5,0.99

# — article doi:10.1101/2023.03.15.532789
